Blank lines part the entries; values can stand above or below the binder they belong to.
Experiments:
[1] = target: T1, GLK (MAP4K3) (transfected; construct of the ALPHA assay with AhR not stated) (UniProt Q8IVH8 1-894, limits assumed); assay: ALPHA protein-protein interaction assay
T1 construct: Expression plasmid 'reported previously'
T1 sequence (looked up): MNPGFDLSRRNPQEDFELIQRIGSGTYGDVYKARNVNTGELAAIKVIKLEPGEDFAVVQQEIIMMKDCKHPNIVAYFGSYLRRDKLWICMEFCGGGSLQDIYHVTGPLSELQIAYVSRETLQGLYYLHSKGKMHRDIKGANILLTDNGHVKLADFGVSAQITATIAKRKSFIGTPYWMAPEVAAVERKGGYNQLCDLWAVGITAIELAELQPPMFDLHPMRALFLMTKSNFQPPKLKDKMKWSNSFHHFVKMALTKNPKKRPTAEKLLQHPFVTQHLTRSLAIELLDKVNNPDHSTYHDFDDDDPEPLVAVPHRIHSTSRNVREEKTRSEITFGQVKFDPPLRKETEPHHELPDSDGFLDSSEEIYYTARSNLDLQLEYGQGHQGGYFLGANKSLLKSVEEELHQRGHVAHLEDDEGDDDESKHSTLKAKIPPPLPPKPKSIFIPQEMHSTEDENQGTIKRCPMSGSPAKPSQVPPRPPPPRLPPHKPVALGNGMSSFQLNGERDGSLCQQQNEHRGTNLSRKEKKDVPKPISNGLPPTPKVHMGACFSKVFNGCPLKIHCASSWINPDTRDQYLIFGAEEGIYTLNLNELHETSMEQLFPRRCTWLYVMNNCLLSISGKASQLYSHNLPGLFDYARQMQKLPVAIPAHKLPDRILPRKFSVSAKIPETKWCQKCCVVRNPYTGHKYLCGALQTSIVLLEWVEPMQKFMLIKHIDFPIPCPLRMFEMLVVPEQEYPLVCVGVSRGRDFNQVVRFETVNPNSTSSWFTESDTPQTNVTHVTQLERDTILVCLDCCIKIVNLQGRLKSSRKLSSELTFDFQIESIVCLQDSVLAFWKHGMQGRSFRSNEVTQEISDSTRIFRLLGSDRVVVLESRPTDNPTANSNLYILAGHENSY

[2] = target: IQGAP1, endogenous, lung tissues of mice in the LLC/luc metastatic lung cancer model (mouse, UniProt Q9JKF1 2-1657); assay: in situ PLA, lung tissues of the LLC/luc mouse model (FIG. 16H, upper panel)
IQGAP1, endogenous, lung tissues of mice in the LLC/luc metastatic lung cancer model, sequence (Q9JKF1 2-1657 limits assumed): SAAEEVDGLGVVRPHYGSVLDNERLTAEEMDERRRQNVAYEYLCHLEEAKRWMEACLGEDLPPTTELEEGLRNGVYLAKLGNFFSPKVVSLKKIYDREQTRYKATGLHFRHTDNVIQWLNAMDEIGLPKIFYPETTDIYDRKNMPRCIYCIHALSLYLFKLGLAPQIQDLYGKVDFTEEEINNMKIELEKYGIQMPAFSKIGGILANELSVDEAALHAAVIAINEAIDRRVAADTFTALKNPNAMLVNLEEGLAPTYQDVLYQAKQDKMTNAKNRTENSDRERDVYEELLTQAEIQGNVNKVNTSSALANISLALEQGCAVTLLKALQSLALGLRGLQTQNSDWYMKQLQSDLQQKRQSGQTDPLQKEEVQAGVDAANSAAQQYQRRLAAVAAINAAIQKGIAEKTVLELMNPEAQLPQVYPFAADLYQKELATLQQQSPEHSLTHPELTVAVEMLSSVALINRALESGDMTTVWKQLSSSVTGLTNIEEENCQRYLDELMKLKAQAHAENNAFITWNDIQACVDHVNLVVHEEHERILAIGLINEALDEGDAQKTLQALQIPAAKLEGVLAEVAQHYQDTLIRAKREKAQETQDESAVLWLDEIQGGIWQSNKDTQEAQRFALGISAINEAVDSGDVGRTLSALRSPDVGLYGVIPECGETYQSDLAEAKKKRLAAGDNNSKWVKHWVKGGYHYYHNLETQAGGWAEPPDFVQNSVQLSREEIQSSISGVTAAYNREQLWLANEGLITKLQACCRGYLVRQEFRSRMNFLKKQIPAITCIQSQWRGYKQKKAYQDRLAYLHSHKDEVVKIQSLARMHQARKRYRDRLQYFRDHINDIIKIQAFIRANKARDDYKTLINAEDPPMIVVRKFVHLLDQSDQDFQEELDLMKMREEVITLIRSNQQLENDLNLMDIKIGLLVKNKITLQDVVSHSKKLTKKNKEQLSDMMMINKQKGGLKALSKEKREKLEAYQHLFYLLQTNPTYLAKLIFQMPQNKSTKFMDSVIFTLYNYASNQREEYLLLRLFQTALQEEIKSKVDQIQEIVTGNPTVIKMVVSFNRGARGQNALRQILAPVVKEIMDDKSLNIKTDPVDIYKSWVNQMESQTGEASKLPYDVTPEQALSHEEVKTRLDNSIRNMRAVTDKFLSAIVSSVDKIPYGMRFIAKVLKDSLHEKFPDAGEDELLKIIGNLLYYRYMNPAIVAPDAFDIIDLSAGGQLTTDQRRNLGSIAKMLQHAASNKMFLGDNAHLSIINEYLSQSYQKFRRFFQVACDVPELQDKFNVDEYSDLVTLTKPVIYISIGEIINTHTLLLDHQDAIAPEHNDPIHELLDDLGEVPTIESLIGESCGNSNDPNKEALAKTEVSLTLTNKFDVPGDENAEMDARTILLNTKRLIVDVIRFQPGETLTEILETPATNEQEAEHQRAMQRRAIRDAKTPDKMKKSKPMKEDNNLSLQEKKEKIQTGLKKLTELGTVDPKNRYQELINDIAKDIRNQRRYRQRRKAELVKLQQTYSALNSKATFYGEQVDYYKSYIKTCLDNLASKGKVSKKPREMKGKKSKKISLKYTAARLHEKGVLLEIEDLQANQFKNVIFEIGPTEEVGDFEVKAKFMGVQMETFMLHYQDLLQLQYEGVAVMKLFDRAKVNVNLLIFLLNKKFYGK

[3] = target: IQGAP1, endogenous, human NSCLC tissues (human, UniProt P46940 2-1657); assay: in situ PLA with probes for GLK and IQGAP1, human NSCLC tissue sections (FIGS. 21A-B)
IQGAP1, endogenous, human NSCLC tissues, sequence (P46940 2-1657 limits assumed): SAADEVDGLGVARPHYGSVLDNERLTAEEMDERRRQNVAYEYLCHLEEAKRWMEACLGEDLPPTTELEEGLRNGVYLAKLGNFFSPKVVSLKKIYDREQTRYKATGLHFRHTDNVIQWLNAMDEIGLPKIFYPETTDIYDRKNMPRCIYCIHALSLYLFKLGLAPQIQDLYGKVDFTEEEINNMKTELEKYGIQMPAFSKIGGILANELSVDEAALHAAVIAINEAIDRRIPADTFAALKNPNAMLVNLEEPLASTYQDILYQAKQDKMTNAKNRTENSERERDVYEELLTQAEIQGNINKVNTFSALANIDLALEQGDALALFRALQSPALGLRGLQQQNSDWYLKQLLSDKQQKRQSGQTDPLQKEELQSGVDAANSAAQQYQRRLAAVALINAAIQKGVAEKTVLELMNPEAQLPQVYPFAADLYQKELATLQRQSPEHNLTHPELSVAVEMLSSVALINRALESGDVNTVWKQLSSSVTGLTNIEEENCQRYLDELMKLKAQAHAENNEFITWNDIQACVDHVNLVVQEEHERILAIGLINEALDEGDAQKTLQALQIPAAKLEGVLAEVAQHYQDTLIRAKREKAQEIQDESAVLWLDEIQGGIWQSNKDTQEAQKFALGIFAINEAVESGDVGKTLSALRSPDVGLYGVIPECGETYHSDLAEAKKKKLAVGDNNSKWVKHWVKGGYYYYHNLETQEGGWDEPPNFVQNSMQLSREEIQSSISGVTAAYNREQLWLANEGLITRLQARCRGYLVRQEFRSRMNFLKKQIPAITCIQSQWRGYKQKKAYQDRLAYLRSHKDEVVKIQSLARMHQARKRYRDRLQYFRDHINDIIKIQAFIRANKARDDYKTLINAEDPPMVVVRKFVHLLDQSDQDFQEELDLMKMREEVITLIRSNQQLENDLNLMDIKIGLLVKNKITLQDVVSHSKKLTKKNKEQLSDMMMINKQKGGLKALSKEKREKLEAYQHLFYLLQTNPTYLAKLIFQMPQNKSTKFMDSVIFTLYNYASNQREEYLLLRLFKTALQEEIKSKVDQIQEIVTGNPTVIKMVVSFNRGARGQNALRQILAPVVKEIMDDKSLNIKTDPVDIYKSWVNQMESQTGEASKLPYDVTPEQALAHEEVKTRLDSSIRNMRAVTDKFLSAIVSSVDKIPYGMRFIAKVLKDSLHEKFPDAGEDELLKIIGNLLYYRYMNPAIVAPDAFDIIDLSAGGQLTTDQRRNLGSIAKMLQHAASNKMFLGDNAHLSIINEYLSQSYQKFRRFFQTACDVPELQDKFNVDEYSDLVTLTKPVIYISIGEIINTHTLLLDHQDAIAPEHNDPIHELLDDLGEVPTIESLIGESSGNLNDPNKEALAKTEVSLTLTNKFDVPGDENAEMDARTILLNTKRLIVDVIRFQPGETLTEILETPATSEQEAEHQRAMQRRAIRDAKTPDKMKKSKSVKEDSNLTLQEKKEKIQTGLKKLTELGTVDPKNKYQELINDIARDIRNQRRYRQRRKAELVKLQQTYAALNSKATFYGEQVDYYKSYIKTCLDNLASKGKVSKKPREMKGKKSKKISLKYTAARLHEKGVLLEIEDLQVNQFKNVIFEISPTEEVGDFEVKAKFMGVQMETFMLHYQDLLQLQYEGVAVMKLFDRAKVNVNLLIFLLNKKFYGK
From the text: These tissues were subjected to in situ proximity ligation assay (PLA) with a combination of paired PLA probes corresponding to GLK and IQGAP1. […] The few PLA signals in the normal adjacent tissues of NSCLC patients may be metastatic cancer cells migrating from original lesion. […] Next, we studied whether the GLK−IQGAP1 complex could act as a potential prognostic biomarker for NSCLCs. NSCLC (squamous cell carcinoma and adenocarcinoma) patients, whose survival data were available, were divided into four PLA-signal subgroups after cluster analyses. The two subgroups with highest PLA signals contained only one and two patients, respectively, thus, these two subgroups were excluded from further analysis. The remaining two subgroups (n=63) were subjected to Kaplan-Meier survival analysis using the survival data (available from the provider). […] The higher P value (P=0.069) may be due to the exclusion of three data with highest PLA signals. Nevertheless, NSCLC patients with more GLK−IQGAP1 complexes have a lower survival rate than that of the patients with less GLK−IQGAP1 complexes. Because 40% to 60% of NSCLC patients the of cancer recurrence after cancer resection, we studied whether the GLK−IQGAP1 complex is associated with NSCLC metastasis. […]

HA-tagged AhR = target: T2, HA-tagged AhR (Homo sapiens (Human), UniProt P35869 1-848, limits assumed); assay: co-IP, HEK293T cells co-transfected with IKKβ-CFP (FIG. 5I)
T2 construct: also called HA-AhR; purified AhR; not shown: HA tag
T2 sequence: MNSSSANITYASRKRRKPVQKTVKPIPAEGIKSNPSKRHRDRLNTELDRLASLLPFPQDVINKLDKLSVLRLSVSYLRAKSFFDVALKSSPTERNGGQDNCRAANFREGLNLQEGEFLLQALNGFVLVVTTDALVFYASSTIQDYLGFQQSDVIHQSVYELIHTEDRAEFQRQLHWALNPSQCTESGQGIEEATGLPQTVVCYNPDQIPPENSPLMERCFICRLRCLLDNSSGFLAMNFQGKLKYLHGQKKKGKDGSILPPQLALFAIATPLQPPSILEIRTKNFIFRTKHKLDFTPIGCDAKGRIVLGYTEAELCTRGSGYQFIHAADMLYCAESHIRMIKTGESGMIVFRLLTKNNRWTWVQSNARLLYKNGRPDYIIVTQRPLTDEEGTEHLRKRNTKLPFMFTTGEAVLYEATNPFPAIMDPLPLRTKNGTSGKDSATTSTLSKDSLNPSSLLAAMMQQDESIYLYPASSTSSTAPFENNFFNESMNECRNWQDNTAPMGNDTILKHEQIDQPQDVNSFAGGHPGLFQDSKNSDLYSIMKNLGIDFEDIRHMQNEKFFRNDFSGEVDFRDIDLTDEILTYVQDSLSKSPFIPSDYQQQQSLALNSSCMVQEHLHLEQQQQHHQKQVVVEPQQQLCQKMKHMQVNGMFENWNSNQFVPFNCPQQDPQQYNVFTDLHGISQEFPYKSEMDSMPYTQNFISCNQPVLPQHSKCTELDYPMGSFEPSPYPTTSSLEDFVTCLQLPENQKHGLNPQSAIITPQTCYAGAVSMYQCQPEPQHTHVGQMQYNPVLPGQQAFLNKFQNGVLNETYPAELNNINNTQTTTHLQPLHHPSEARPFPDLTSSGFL

[4] = target: T3, AhR, endogenous, human peripheral blood T cells (SLE and RA patients) (human, UniProt P35869 11-848, limits assumed); assay: in situ PLA, human peripheral blood T cells (FIG. 8C)
T3 sequence (looked up): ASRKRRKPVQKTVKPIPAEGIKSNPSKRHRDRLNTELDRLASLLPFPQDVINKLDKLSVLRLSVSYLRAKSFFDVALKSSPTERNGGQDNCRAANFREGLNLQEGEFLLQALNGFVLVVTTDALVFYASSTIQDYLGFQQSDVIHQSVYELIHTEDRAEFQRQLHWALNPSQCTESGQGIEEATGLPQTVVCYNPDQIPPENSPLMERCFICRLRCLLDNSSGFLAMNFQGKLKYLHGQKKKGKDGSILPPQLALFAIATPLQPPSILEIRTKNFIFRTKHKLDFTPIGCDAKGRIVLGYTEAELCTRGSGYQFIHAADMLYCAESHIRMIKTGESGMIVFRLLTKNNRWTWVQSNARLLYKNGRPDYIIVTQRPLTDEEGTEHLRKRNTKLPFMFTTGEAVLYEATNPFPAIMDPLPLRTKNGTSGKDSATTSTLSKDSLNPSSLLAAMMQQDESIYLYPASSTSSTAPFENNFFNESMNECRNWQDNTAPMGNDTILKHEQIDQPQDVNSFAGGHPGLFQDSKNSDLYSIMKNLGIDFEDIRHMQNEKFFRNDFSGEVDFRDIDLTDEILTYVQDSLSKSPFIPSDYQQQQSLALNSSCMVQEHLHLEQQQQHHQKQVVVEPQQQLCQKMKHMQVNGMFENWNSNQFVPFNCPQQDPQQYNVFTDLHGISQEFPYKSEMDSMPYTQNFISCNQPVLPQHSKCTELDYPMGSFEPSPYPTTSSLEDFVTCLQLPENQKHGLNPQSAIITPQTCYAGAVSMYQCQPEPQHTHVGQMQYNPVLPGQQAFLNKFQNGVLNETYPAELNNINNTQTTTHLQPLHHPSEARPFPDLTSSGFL

B2: GLK, endogenous, lung tissues of mice in the LLC/luc metastatic lung cancer model (enzyme)
chain: not shown
- binding result [2]: binds

B3: GLK, endogenous, human NSCLC tissues (enzyme, UniProt Q8IVH8 1-894, looked up)
chain: T1 sequence (looked up)
- binding result [3]: binds

B4: Flag-tagged RORγt-S489A mutant (receptor)
chain: DYKDDDDKMRTQIEVIPCKICGDKSSGIHYGVITCEGCKGFFRRSQQCNVAYSCTRQQNCPIDRTSRNRCQHCRLQKCLALGMSRDAVKFGRMSKKQRDSLHAEVQKQLQQQQQQEQVAKTPPAGSRGADTLTYTLGLSDGQLPLGASPDLPEASACPPGLLRASGSGPPYSNTLAKTEVQGASCHLEYSPERGKAEGRDSIYSTDGQLTLGRCGLRFEETRHPELGEPEQGPDSHCIPSFCSAPEVPYASLTDIEYLVQNVCKSFRETCQLRLEDLLRQRTNLFSREEVTSYQRKSMWEMWERCAHHLTEAIQYVVEFAKRLSGFMELCQNDQIILLKAGAMEVVLVRMCRAYNANNHTVFFEGKYGGVELFRALGCSELISSIFDFSHFLSALCFSEDEIALYTALVLINANRPGLQEKRRVEHLQYNLELAFHHHLCKTHRQGLLAKLPPKGKLRSLCSQHVEKLQIFQHLHPIVVQAAFPPLYKELFSTDVEAPEGLSK
- binding result (HA-tagged AhR): no binding

More lines, now with the values ahead:

- binding result [1]: no binding
B1: AhR (transfected; construct of the ALPHA and FRET assays with PKCθ or GLK not stated) (receptor)
chain: T2 sequence

- binding result [4]: binds
B5: RORγt, endogenous, human peripheral blood T cells (SLE and RA patients) (receptor, UniProt P51449-2 1-497, looked up)
chain: MRTQIEVIPCKICGDKSSGIHYGVITCEGCKGFFRRSQRCNAAYSCTRQQNCPIDRTSRNRCQHCRLQKCLALGMSRDAVKFGRMSKKQRDSLHAEVQKQLQQRQQQQQEPVVKTPPAGAQGADTLTYTLGLPDGQLPLGSSPDLPEASACPPGLLKASGSGPSYSNNLAKAGLNGASCHLEYSPERGKAEGRESFYSTGSQLTPDRCGLRFEEHRHPGLGELGQGPDSYGSPSFRSTPEAPYASLTEIEHLVQSVCKSYRETCQLRLEDLLRQRSNIFSREEVTGYQRKSMWEMWERCAHHLTEAIQYVVEFAKRLSGFMELCQNDQIVLLKAGAMEVVLVRMCRAYNADNRTVFFEGKYGGMELFRALGCSELISSIFDFSHSLSALHFSEDEIALYTALVLINAHRPGLQEKRKVEQLQYNLELAFHHHLCKTHRQSILAKLPPKGKLRSLCSQHVERLQIFQHLHPIVVQAAFPPLYKELFSTETESPVGLSK

Source: US20200057047A1 (NATIONAL HEALTH RESEARCH INSTITUTES, published 2020)
